Numbering of substitutions follows the chain as printed.

The source of these data is patent US20230374090A1 (SURROZEN OPERATING, published 2023).

One test deals with T1, human ASGR1 (human, UniProt P07306 62-291, limits assumed).
T1 construct: also called asialoglycoprotein receptor 1; hASGR1
T1 sequence (looked up): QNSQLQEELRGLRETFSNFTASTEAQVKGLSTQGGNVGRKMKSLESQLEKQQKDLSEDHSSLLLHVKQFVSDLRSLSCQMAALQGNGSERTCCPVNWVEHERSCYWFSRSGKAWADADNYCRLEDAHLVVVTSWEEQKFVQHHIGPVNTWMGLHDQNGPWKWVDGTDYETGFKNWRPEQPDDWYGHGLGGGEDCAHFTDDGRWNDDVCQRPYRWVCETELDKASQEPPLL
Briefly: kinetic binding to human ASGR1, IgG1 format; method and unit inferred.

The target of test [1] is T2, HuASGR1-CBD_P07306_154-291 (human).
T2 construct: also called human ASGR1-CBD
T2 chain: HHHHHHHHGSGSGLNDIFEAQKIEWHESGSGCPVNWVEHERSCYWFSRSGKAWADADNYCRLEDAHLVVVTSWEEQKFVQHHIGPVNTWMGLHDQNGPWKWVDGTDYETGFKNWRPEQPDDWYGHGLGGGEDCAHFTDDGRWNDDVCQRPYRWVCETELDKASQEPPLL
The experiment in a line: size-exclusion chromatography of the mixed proteins (1.1:1 molar ratio). The protocol:
Purified […] and 8M24 Fab were mixed at 1.1:1 molar ratio (little excess of the HuASGR1-CBD), and incubated with carboxy-peptidase A and B at a w/w ratio of 100:1 for over-night at 4° C. Complex formation was confirmed by observation of a single-major peak on SuperdexS200 Increase (10/300 GL) column pre-equilibrated in HBS. Fractions containing complexes were further checked by SDS-PAGE and concentrated to ˜20 mg/mL for crystallization screens. […] 96-well plate crystal screening experiments were periodically monitored manually via a DiscoveryV20 stereomicroscope (Zeiss USA), and crystals were frozen for data collection by plunging into liquid nitrogen in the presence of various cryo-protectants (typically 15 to 30% v/v of glycerol or ethyleneglycol). […] Structure of HuASGR1-CBD:8M24 complex was determined by molecular replacement method using Phaser [Phaser crystallographic software. McCoy A J, Grosse-Kunstleve R W, Adams P D, Winn M D, Storoni L C, and Read R J. (2007) J Appl Crystallogr 40, 658-674] with poly-alanine model of published structure of ASGR1-CBD [PDB code: SJPV; Efficient Liver Targeting by Polyvalent Display of a Compact Ligand for the Asialoglycoprotein Receptor. […]
(In gel filtration, larger molecules generally elute earlier.)

B1: 8M24 humanized L1H1 (antibody, V domains shown)
VH: EVQLVQSGAEVKKPGSSVKVSCKASGYTFTNYGINWVRQAPGQGLEWMGEIFPRSDNTFYAQKFQGRVTITADKSTSTAYMELSSLRSEDTAVYYCARKGRDYGTSHYFDYWGQGTTVTVSS
VL: DIQMTQSPSSLSASVGDRVTITCRISENIYSNLAWYQQKPGKAPKLLIYAAINLADGVPSRFSGSGSGTDFTLTISSLQPEDFATYYCQHFWGTPFTFGQGTKLEIK
notes: also called 8M24 humanized 1
In turn, B1 had a Kd with human ASGR1 of 0.00573 nM.

B2: 8M24 Fab (L1H1 version) (Fab, V domains shown)
VH: B1 VH
VL: DIQMTQSPSSLSASVGDRVTITCRISENIYSNLAWYQQKPGKAPKLLIYAAINLADGVPSRFSGSGSGTDFTLTISSLQPEDFATYYCQHFWGTPFTFGQGTKLEIKR
notes: Heavy chain entry includes a C-terminal hexa-histidine tag; also called 8M24L1 Light-chain + 8M24H1 Heavy-chain; SZP19057+19056
As to B2, the binding result in test [1] was “binds”.

B3: 8M24 humanized L2H2 (antibody, V domains shown)
VH: B1 VH with M48I, V68A, I70L, V118L
VL: B1 VL with I48V, A84G
notes: also called 8M24 humanized 2
As to B3, the affinity with human ASGR1, expressed as Kd, was 0.11 nM.

The term Kd denotes the constant that tells how readily two partners part at equilibrium.
